This note sets out measurements from patent publication US6656471.

For the test, the target named is HLA class I (human). The test is described as follows: cell-based or functional assay.

“W6/32, the class I-specific antibody, from hybridoma culture supernatants (ATCC: HB95)” yielded a reduction in HIV-1 envelope-specific CTL activity (PBMCs from LB, E:T 25:1, 1:4 dilution of W6/32 supernatant) of 73%; a specific lysis value with W6/32 (E:T 25:1) of 6.2%; a specific lysis value without W6/32 (E:T 25:1) of 23.2%.
